Source: PMC4034419, “DNA polymerase hybrids derived from the family-B enzymes of Pyrococcus furiosus and Thermococcus kodakarensis: improving performance in the polymerase chain reaction”
Where a chain is given by its changes, count along the chain named.

Legend:
Assay in all cases: fluorescence anisotropy; 20 mM Tris-HCl pH 8.5, 10 mM KCl, 10 mM (NH4)2SO4 (ionic strength 40); 10 nM Hex primer-template; rest of buffer and temperature not in material
Settings in all cases: protein: recombinant; label: 5'-hexachlorofluorescein on primer (strand 1); 5' overhang 20 nt on template (strand 2)
[1] = biological target: T1, Pfu-Pol wild type (family-B DNA polymerase) (Pyrococcus furiosus, UniProt P61875 1-775)
T1 sequence: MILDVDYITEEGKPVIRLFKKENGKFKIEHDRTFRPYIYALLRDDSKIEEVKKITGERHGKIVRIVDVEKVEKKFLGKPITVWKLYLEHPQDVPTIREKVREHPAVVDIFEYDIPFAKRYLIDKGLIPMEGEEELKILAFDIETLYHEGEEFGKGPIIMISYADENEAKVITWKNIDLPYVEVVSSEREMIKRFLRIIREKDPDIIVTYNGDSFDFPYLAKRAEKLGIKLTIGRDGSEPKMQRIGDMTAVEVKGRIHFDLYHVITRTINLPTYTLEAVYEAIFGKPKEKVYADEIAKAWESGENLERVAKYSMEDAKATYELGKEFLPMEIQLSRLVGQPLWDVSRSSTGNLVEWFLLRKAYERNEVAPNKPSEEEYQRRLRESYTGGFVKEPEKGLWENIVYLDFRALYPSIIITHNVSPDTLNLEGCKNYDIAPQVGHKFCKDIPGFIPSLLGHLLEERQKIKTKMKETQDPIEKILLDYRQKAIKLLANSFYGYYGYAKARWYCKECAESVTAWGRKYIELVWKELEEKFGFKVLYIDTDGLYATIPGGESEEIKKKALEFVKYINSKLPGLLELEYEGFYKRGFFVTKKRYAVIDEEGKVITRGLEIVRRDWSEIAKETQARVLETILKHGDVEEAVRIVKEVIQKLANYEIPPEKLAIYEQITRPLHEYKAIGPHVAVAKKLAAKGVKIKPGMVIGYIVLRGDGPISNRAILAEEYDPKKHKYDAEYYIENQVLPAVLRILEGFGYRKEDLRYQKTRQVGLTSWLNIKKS

[2] = biological target: T2, Tkod-Pol wild type (family-B DNA polymerase) (Thermococcus kodakarensis, UniProt D0VWU9 1-774)
T2 sequence: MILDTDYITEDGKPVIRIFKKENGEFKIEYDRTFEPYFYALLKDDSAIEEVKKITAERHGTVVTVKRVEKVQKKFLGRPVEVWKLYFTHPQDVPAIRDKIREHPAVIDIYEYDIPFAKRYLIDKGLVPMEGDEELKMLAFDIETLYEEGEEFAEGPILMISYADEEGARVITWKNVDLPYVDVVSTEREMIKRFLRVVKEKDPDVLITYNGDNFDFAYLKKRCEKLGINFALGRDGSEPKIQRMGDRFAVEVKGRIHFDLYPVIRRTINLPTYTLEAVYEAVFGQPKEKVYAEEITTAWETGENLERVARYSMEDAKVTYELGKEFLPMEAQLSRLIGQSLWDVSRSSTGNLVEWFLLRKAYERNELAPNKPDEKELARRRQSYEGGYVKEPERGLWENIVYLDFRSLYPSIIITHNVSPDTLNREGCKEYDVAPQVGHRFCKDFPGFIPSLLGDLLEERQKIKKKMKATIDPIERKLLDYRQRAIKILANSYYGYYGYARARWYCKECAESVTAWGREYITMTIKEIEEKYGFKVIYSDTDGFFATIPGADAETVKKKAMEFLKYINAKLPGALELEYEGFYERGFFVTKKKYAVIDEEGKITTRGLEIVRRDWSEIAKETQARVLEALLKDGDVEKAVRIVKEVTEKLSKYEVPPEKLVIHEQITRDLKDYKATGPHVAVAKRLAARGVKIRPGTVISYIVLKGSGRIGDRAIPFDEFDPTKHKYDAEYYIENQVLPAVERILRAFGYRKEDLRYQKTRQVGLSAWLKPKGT

Pfu-Pol L381R/K502R = biological target: T3, Pfu-Pol L381R/K502R (Pyrococcus furiosus, UniProt P61875 1-775, L381R;K502R)
T3 sequence: T1 sequence with L381R, K502R

Pfu-TkodTS (thumb swap) = biological target: T4, Pfu-TkodTS (thumb swap) (Pyrococcus furiosus / Thermococcus …, UniProt P61875 1-590+D0VWU9:590-774, internal_change)
T4 sequence: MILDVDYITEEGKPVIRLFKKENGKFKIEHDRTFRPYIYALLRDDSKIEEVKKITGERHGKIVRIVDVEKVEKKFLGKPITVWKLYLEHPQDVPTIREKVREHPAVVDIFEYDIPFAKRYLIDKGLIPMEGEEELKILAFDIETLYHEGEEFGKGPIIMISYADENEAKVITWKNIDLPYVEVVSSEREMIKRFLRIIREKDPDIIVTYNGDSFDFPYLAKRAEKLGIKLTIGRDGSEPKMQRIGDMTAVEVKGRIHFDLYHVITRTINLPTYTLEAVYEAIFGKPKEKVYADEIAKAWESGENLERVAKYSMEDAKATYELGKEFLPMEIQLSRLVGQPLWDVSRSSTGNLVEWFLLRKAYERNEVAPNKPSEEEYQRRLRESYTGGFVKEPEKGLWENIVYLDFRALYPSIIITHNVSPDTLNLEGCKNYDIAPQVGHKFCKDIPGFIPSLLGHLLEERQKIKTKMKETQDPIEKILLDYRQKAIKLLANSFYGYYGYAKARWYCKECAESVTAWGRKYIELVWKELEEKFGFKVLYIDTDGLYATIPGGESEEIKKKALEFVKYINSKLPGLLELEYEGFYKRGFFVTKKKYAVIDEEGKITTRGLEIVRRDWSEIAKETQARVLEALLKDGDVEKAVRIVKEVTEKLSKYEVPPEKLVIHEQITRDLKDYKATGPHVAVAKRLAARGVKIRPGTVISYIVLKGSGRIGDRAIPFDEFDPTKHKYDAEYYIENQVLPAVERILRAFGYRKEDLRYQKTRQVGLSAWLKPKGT

Pfu-TkodTS L381R/K502R = biological target: T5, Pfu-TkodTS L381R/K502R (Pyrococcus furiosus / Thermococcus …, UniProt P61875 1-590+D0VWU9:590-774, L381R;K502R;internal_change)
T5 sequence: T4 sequence with L381R, K502R

Pfu-Pol M247R/L381R = biological target: T6, Pfu-Pol M247R/L381R (Pyrococcus furiosus, UniProt P61875 1-775, M247R;L381R)
T6 sequence: T1 sequence with M247R, L381R

B1: Hex primer-template (24/44) (dsDNA)
DNA 1: GGGGATCCTCTAGAGTCGACCTGC
DNA 2: GGAGACAAGCTTGCTTGCCAGCAGGTCGACTCTAGAGGATCCCC
Kd [1]: 251 ± 23 nM | Kd [2]: 276 ± 18 nM | Kd (Pfu-Pol L381R/K502R): 107 ± 13 nM | Kd (Pfu-TkodTS (thumb swap)): 95 ± 7 nM | Kd (Pfu-TkodTS L381R/K502R): 50 ± 7 nM | Kd (Pfu-Pol M247R/L381R): 70 ± 9 nM
